Data taken from FireProtDB (doi:10.1021/bi00416a052).

B1: Ribonuclease HI, P0A7Y4 (parent)
chain: MLKQVEIFTDGSCLGNPGPGGYGAILRYRGREKTFSAGYTRTTNNRMELMAAIVALEALKEHCEVILSTDSQYVRQGITQWIHNWKKRGWKTADKKPVKNVDLWQRLDAALGQHQIKWEWVKGHAGHPENERCDELARAAAMNPTLEDTGYQVEV

Variants of: B1
Conditions: Escherichia coli (strain K12), Thermal, CD, NaCl 0.1 M, reversible: yes, structure 2RN2, whole UniProt chain shown
[1] = pH 3, 49.8 °C, glycine-HCl 10 mM
[2] = pH 5.5, 52 °C, Sodium acetate 20 mM

Which results are given for V74A?
ddG of mutation (higher = less stable) [1]: 2.2 kcal/mol; Tm (pH 3, glycine-HCl 10 mM): 42.2 °C; change of melting temperature, mutant - wild type (higher = more stable) (pH 3, glycine-HCl 10 mM): -7.6 °C; ddG of mutation (higher = less stable) [2]: 3.4 kcal/mol; Tm (pH 5.5, Sodium acetate 20 mM): 39.3 °C; change of melting temperature, mutant - wild type (higher = more stable) (pH 5.5, Sodium acetate 20 mM): -12.7 °C

For V74I, which “ddG of mutation (higher = less stable)” value [1] is on record?
Its value is -0.7 kcal/mol.

What about the Tm (pH 3, glycine-HCl 10 mM) of the same variant?
Its Tm is 52.2 °C.

And the “change of melting temperature, mutant - wild type (higher = more stable)” value (“change of melting temperature, mutant” for short) (pH 3, glycine-HCl 10 mM)?
The value was 2.4 °C.

And the “ddG of mutation (higher = less stable)” value [2]?
Its value is -0.6 kcal/mol.

What about the Tm (pH 5.5, Sodium acetate 20 mM) of the same variant?
Its Tm is 54.1 °C.

And the “change of melting temperature, mutant” value (pH 5.5, Sodium acetate 20 mM)?
The value was 2.1 °C.

For V74L, which “ddG of mutation (higher = less stable)” value [1] is on record?
The value was -1.1 kcal/mol.

And the Tm (pH 3, glycine-HCl 10 mM)?
Its Tm is 53.5 °C.

And the “change of melting temperature, mutant” value (pH 3, glycine-HCl 10 mM)?
The value was 3.7 °C.

And the “ddG of mutation (higher = less stable)” value [2]?
The value was -0.9 kcal/mol.

And the Tm (pH 5.5, Sodium acetate 20 mM)?
Its Tm is 55.3 °C.

What about the “change of melting temperature, mutant” value (pH 5.5, Sodium acetate 20 mM) of the same variant?
Its value is 3.3 °C.
